This passage reports equilibrium binding level relative to MIM/IMD-S results from paper PMC2064081.

The target of the assay is MIM/IMD-L (IRSp53/MIM domain of mouse missing-in-metastasis, longer splice variant) (mouse) (UniProt Q8R1S4). In words: SPR.
MIM/IMD-L (IRSp53/MIM domain of mouse missing-in-metastasis, longer splice variant) (mouse), sequence (Q8R1S4 1-250, change not shown): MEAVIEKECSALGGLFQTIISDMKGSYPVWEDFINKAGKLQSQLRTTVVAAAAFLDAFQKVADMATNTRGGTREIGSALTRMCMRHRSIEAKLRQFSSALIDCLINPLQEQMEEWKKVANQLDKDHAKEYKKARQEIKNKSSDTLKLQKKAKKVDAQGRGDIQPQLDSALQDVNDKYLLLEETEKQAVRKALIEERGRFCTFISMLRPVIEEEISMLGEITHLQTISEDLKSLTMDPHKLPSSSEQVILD

“GST-Rac (V12), dominant-active Rac (from UniProt P63000 1-192) (natural protein)” returned an equilibrium binding level relative to MIM/IMD-S of 10 to 15%.
